Measured values: patent US8722850B2, “Self-assembling peptides and their use in the formation of hydrogels” (Universita' Degli Studi di Milano Bicocca, priority 2010, dated 2014)
“Also recorded” adds a separate entry of the source. The star is where a group is joined. Biotin = O=C1N[C@H]2[C@H](CS[C@H]2CCCCC(=O)*)N1

Experiments:
[1] = Macro-scale scaffold formation upon exposure to PBS / neutral pH buffer; type: physicochemical; details: upon exposure to PBS (1×) / neutral pH buffer
Excerpt: The tested peptides solutions appearance ranged from peptides giving clear liquid is solutions (e.g. 4, B15, B19, B25, B28, 30) to samples which become opaque in 1 to 7 days after dissolution (e.g. B3, B17, B22, B24, B27, 31) as shown in FIG. 2a (I). Most of the liquid solutions increased in viscosity over the first week after dissolution, however after ten days in water no appreciable changes happened at the macroscale.
Nonetheless, keeping constant the observation time, the storage moduli of peptide solutions previously dissolved (the day before) at 3% w/v were measured. Measurements were obtained of these peptide solutions, further diluted to 1% w/v at the same day of the experiment (unless otherwise specified), and, after addition of PBS, of the formed scaffolds.

[2] = tested on: human Neural Stem Cells (hNSCs); assay: Phase contrast imaging of hNSC morphology on scaffolds; type: cell-based; details: 7 days in vitro
Experimental: In vitro tests were performed following a previously adopted methodology (5). Briefly, cells (at a concentration of 6×10^4 cells/cm^2) were seeded on the top-surface of each assembled scaffold previously assembled into 96 multiwells. Initially, cells were cultured with basal medium supplemented with βFGF (10 ng/ml), added to enhance neuronal progeny differentiation. At 3 days in vitro (DIV), βFGF medium was replaced with Leukemia Inhibitory Factor (LIF, Chemicon) (20 ng/ml) and Brain Derived Neurotrophic Factor (BDNF, Peprotech) (20 ng/ml). Fresh medium was added every three days. Positive and negative controls consisted of CULTREX-BME® substrate (R&D systems) (1:100 dilution in basal medium) and untreated bottom well surfaces respectively.
To assess the potential of the proposed SAPs for cell cultures and, more generally, for regenerative medicine, a two-dimensional cell culture protocol already developed for RADA16-I-like peptides was adapted (5). Briefly, human Neural Stem Cells (hNSCs), mechanically dissociated 1 day before plating, were seeded and cultured for one week in vitro over self-assembled scaffolds of B3, 4, B15, B17, B19, B22, B24, B25, B27, B28, 30, 31 and over non-coated tissue culture plastic wells (negative control).

[3] = Self-healing tests of assembled scaffolds after mechanical rupture; type: physicochemical; details: recovery of scaffold stiffness after mechanical rupture
Experimental: Rheological properties were determined for the peptides of the invention, using a controlled stress TA Instruments AR-2000ex rheometer (TAInstruments). A cone-and-plate geometry (acrylic cone diameter, 20 mm; angle, 1°; truncation gap 34 μm) was used. All measurements were obtained at a constant monitored temperature of 25° C. Preliminary strain sweeps were performed for each sample to define the linear viscoelastic region, thus ensuring that moduli were independent of strain. Time sweeps, after addition of PBS (1×) were recorded at constant angular frequency (ω=1 Hz). Frequency sweeps, both for peptide water solutions and for self-assembled scaffolds, were performed with the instrument in oscillatory mode at controlled strain of 1%. Final: onset point of rupture was calculated by linear interpolation and subsequent determination of the intersection of the G′ modes in the linear region and at material rupture respectively. G′ values were averaged in the 1-100 Hz region and between n=3 independent replicates. During self-healing tests the self-assembled scaffold was torn by applying a strain sweep (0.01%-1000% strain range) at 1 Hz oscillatory frequency. G′ values were is recorded in frequency sweep mode (at 1% strain) or, in time sweep mode (at 1 Hz and at 1% strain), before and after the strain sweep step, subsequent observations were performed every half hour or, in case of time sweep test, every 30 seconds. In all of the SAPs the difference between the storage moduli measured before and after PBS addition spanned from two to four orders of magnitude, proving the dramatic biomechanical changes taking place during scaffold gelation. Peptide B3 (1%) yielded a solid stiff scaffold (G′=2917 Pa), supporting the idea that ionic charges may screen the electrostatic repulsions given by positively charged lysine residues and speed up the spontaneous ongoing self-assembling process, on its turn giving an already viscous (G′=67 Pa) and opaque solution at day 1. Among the peptides giving soft scaffold (100 Pa-1000 Pa range) peptides 4, B19, B25, B28 and 30 were included. On the opposite side, SAPs yielding solid stiff scaffolds are B15, B22, B24, B27 and 31 (5000 Pa-9000 Pa range).
Solid scaffolds were obtained via addition of PBS (1×) in a cone-and-plate rheometer; we measured the storage modulus, the samples were subjected to a strain sweep (0.01% to 1000%) until and far beyond rupture occurred (i.e. is monitoring the sudden drop of G′ value). Samples were then left in place (keeping them hydrated with PBS) and their G′ were measured every 30 minutes via frequency sweep tests in the range of 0.1 Hz to 60 Hz. As a negative control KLD-12, a well-known SAP, was tested (4, 6). […] In FIG. 6b peptide B25 (3% w/v concentration) was assessed for self-healing in a time sweep mode, every 30 seconds, at 1 Hz and at 1% strain. Values of G′ recovered after 100 minutes (1000 Pa) and steadily plateaued over time. For peptides B3, B22, B25 and B27 full recovery was obtained at different time intervals after rupture, ranging from 60′ to 240′. Similar results were confirmed by multiple independent experiments, but at different time ranges, for all of the self-assembling peptides except for B19 and B28.
Samples were checked for rupture by tilting. After a maximum of four hours all of the samples returned to their solidified gel appearance. This healing could be repeated at will.

Substance	solid scaffold / hydrogel formation [1]	cell morphology / degree of spreading [2]	self-healing property [3]
Ac-F-GGG-AFASTKT-GIKVAV-CONH2 (Ac-FGGGAFASTKTGIKVAV-NH2) [compound 59]	yielded solid scaffolds	–	–
Ac-F-GGG-AFSSTKT-CONH2 (Ac-FGGGAFSSTKT-NH2) [compound 61]	yielded solid scaffolds	–	–
Ac-FGGG-PFSSTKT-CONH2 (Ac-FGGGPFSSTKT-NH2) [compound 37]	yielded solid scaffolds	–	–
Ac-GGGPFSSTKT-CONH2 (Ac-GGGPFSSTKT-NH2) [peptide 2, biotin-deleted version of B3 that formed no scaffold]	prevented any scaffold formation	–	–
Ac-WGGGAFASTKT-CONH2 (Ac-WGGGAFASTKT-NH2) [compound 30]	yielded solid scaffolds	single spherical cells	–
Ac-Y-GGG-PFSSTKT-CONH2 (Ac-YGGGPFSSTKT-NH2) [peptide 60]	yielded solid scaffolds	–	–
Biot-GGGGGPFSSTKT-CONH2 (Biotin-GGGGGPFSSTKT-NH2; SMILES C[C@@H](O)[C@H](NC(=O)[C@H](CCCCN)NC(=O)[C@@H](NC(=O)[C@H](CO)NC(=O)[C@H](CO)NC(=O)[C@H](Cc1ccccc1)NC(=O)[C@@H]1CCCN1C(=O)CNC(=O)CNC(=O)CNC(=O)CNC(=O)CNC(=O)CCCC[C@@H]1SC[C@@H]2NC(=O)N[C@@H]21)[C@@H](C)O)C(N)=O) [peptide B25]	yielded solid scaffolds	–	self-healing property has been seen
Biot-GGGKFSSTPT-CONH2 (Biotin-GGGKFSSTPT-NH2; SMILES C[C@@H](O)[C@H](NC(=O)[C@@H]1CCCN1C(=O)[C@@H](NC(=O)[C@H](CO)NC(=O)[C@H](CO)NC(=O)[C@H](Cc1ccccc1)NC(=O)[C@H](CCCCN)NC(=O)CNC(=O)CNC(=O)CNC(=O)CCCC[C@@H]1SC[C@@H]2NC(=O)N[C@@H]21)[C@@H](C)O)C(N)=O) [B64]	yielded solid scaffolds; also recorded: self-assembled giving a hydrogel upon exposure to PBS	–	–
Biot-GGGPFSETKT-CONH2 (Biotin-GGGPFSETKT-NH2; SMILES C[C@@H](O)[C@H](NC(=O)[C@H](CCCCN)NC(=O)[C@@H](NC(=O)[C@H](CCC(=O)O)NC(=O)[C@H](CO)NC(=O)[C@H](Cc1ccccc1)NC(=O)[C@@H]1CCCN1C(=O)CNC(=O)CNC(=O)CNC(=O)CCCC[C@@H]1SC[C@@H]2NC(=O)N[C@@H]21)[C@@H](C)O)C(N)=O) [peptide B17]	yielded solid scaffolds	proliferated cell clusters	self-healing property has been seen
Biot-GGGPFSSKTT-CONH2 (Biotin-GGGPFSSKTT-NH2; SMILES C[C@@H](O)[C@H](NC(=O)[C@@H](NC(=O)[C@H](CCCCN)NC(=O)[C@H](CO)NC(=O)[C@H](CO)NC(=O)[C@H](Cc1ccccc1)NC(=O)[C@@H]1CCCN1C(=O)CNC(=O)CNC(=O)CNC(=O)CCCC[C@@H]1SC[C@@H]2NC(=O)N[C@@H]21)[C@@H](C)O)C(N)=O) [B66]	self-assembled giving a hydrogel upon exposure to PBS	–	–
Biot-GGGPFSSTTK-CONH2 (Biotin-GGGPFSSTTK-NH2; SMILES C[C@@H](O)[C@H](NC(=O)[C@H](CO)NC(=O)[C@H](CO)NC(=O)[C@H](Cc1ccccc1)NC(=O)[C@@H]1CCCN1C(=O)CNC(=O)CNC(=O)CNC(=O)CCCC[C@@H]1SC[C@@H]2NC(=O)N[C@@H]21)C(=O)N[C@H](C(=O)N[C@@H](CCCCN)C(N)=O)[C@@H](C)O) [B67]	self-assembled giving a hydrogel upon exposure to PBS	–	–
Biot-GGGPKSSTFT-CONH2 (Biotin-GGGPKSSTFT-NH2; SMILES C[C@@H](O)[C@H](NC(=O)[C@H](Cc1ccccc1)NC(=O)[C@@H](NC(=O)[C@H](CO)NC(=O)[C@H](CO)NC(=O)[C@H](CCCCN)NC(=O)[C@@H]1CCCN1C(=O)CNC(=O)CNC(=O)CNC(=O)CCCC[C@@H]1SC[C@@H]2NC(=O)N[C@@H]21)[C@@H](C)O)C(N)=O) [B65]	yielded solid scaffolds; also recorded: self-assembled giving a hydrogel upon exposure to PBS	–	–
Biot-GGGPWSSTKT-CONH2 (Biotin-GGGPWSSTKT-NH2; SMILES C[C@@H](O)[C@H](NC(=O)[C@H](CCCCN)NC(=O)[C@@H](NC(=O)[C@H](CO)NC(=O)[C@H](CO)NC(=O)[C@H](Cc1c[nH]c2ccccc12)NC(=O)[C@@H]1CCCN1C(=O)CNC(=O)CNC(=O)CNC(=O)CCCC[C@@H]1SC[C@@H]2NC(=O)N[C@@H]21)[C@@H](C)O)C(N)=O) [B27]	yielded solid scaffolds	–	self-healing property has been seen
Biot-PFSSTKT-CONH2 (Biotin-PFSSTKT-NH2; SMILES C[C@@H](O)[C@H](NC(=O)[C@H](CCCCN)NC(=O)[C@@H](NC(=O)[C@H](CO)NC(=O)[C@H](CO)NC(=O)[C@H](Cc1ccccc1)NC(=O)[C@@H]1CCCN1C(=O)CCCC[C@@H]1SC[C@@H]2NC(=O)N[C@@H]21)[C@@H](C)O)C(N)=O) [peptide B7, non-assembling control peptide]	not give a solid scaffold	–	–
Biotin-G-AFASTKT-CONH2 [B50]	yielded solid scaffolds	–	–
Biotin-GGGAFASTKA-NH2 [B33]	yielded solid scaffolds	–	–
Biotin-GGGAWASTKT-NH2 [B32]	yielded solid scaffolds	–	–
Biotin-GGGGG-AFASTKT-CONH2 [B51]	yielded solid scaffolds	–	–
Biotin-GGGPFSSTKTP-NH2 [B34]	yielded solid scaffolds	–	–
